Consider five molecules from US20250367288A1, “DELIVERY OF MULTI-CYTOKINE SIGNALS BY OVEREXPRESSION OF WILD-TYPE OR MUTANT SIGNAL TRANSDUCTION MOLECULES” (THE TRUSTEES OF THE UNIVERSITY OF PENNSYLVANIA, priority 2021, published 2025).

One assay concerns T cells expressing TPOR. In words: Stimulation of T cells expressing TPOR for 7 days; cell number and percent transgenic cells by flow cytometry. The class given is cell-based, human. Particulars: 0.1 μg/ml; for TPOR fraction after addition of agonist: enriched from 12.9% without addition. The method, then: (§1) FIG. 12: T cells transduced to express (i) the thrombopoietin receptor (TPOR) or (ii) the GCF receptor with a deletion at aa 715 (GCSFRd715) are active and can drive T cell proliferation via the non-canonical JAK2 pathway. T cells expressing GCSFRd715, TPOR, or the truncated NGFR as a control were stimulated for 7 days with IL-2/IL-7/IL-15 (all at 5 ng/ml; denoted as CK; positive control condition), 0.1 μg/ml recombinant thrombopoietin (TPO), 0.1 μg/ml TPO agonist eltrombopag (EP), or 0.1 μg/ml GCSF. Cell number (top) or percent transgenic cells (bottom) were quantified using flow cytometry at 7 days.
(§2) FIG. 13: Exemplary flow cytometry plots showing that exposure of transgenic cytokine receptor transduced cells to the cognate cytokine (i.e. GCSFRd715 to GCSF; TPOR to TPO or EP) leads to enrichment of CAR expressing cells at 7 days. Addition of GCSF enriched the GCSRFd715 transgenic cell fraction from 15.6% to 64.9% (top panel). Addition of TPO enriched the TPOR fraction from 12.9% to 82% and addition of EP enriched the TPOR fraction from 12.9% to 55.9% (bottom panel).
(§3) Healthy donor T cells were transduced to express (i) the thrombopoietin receptor (TPOR) or (ii) the GCF receptor with a deletion at aa 715 (GCSFRd715). T cells expressing GCSFRd715, TPOR, or the truncated NGFR as a control were stimulated for 7 days with IL-2/IL-7/IL-15 (all at 5 ng/ml; denoted as CK; positive control condition), 0.1 μg/ml recombinant thrombopoietin (TPO), 0.1 μg/ml TPO agonist eltrombopag (EP), or 0.1 μg/ml GCSF. Cell number (FIG. 12, top) or percent transgenic cells (FIG. 12, bottom) were quantified using flow cytometry at 7 days.
For orientation: In flow cytometry, cells or beads pass a laser one at a time.

The target in assay [1] is GCF receptor with a deletion at aa 715 (GCSFRd715) (UniProt Q99062). In words: cell-based or functional assay.
Chain of UniProt Q99062 (Q99062 25-738 limits assumed, stated change not applied): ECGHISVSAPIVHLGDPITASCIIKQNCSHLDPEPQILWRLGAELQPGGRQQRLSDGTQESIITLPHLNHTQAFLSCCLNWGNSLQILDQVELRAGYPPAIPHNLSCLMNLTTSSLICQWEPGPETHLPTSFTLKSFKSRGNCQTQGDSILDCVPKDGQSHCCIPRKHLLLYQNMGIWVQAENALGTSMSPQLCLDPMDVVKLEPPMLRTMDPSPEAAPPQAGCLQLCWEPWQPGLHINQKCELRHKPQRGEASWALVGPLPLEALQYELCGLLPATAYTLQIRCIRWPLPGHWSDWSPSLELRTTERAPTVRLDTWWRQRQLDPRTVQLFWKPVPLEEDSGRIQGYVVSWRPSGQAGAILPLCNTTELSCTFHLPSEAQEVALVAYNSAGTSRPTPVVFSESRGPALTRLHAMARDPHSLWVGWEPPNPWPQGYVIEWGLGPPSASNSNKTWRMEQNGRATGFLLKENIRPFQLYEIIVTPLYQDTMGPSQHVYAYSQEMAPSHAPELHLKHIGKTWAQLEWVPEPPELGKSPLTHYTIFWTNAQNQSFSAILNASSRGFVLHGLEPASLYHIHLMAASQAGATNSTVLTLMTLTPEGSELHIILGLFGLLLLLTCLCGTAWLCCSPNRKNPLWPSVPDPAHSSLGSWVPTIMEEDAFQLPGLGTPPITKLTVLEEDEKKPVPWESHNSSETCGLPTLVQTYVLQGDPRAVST
Assay [2] deals with T cells expressing the truncated NGFR. Kind of assay: Stimulation of negative control T cells expressing truncated NGFR for 7 days; flow cytometry. The class given is cell-based, human. Particulars: 0.1 μg/ml. The method, then:
as §1, §3

For the next assay, the system named is TPOR. In words: Phosphorylation of STAT3 and STAT5 in TPOR expressing T cells after 24 hours stimulation, flow cytometry. The class given is cell-based, human. Particulars: 0.1 μg/ml. As to the method: FIG. 14: TPOR stimulation leads to activation of STAT3 and STAT5. Healthy donor T cells expressing TPOR or untransduced control T cells were stimulated for 24 hours with 5 ng/ml IL-2/IL-7/IL-15 (CK), 0.1 μg/ml TPO or 0.1 μg/ml Eltrombopag (EP). Following stimulation cells were fixed and the phosphorylation of STAT3 and STAT5 quantified using flow cytometry.
TPOR stimulation led to activation of STAT3 and STAT5 (FIG. 14). Healthy donor T cells expressing TPOR or untransduced control T cells were stimulated for 24 hours with 5 ng/ml IL-2/IL-7/IL-15 (CK), 0.1 μg/ml TPO, or 0.1 μg/ml Eltrombopag (EP). Following stimulation cells were fixed and the phosphorylation of STAT3 and STAT5 quantified using flow cytometry.

Assay [3] concerns the target thrombopoietin receptor (TPOR) (UniProt P40238). In words: cell-based or functional assay.
The test system of assay [4] is T cells expressing GCSFRd715. Kind of assay: Stimulation of T cells expressing GCSFRd715 for 7 days; cell number and percent transgenic cells by flow cytometry. Conditions: 0.1 μg/ml. The class given is cell-based, human. The method, then: as §1, §2
Healthy donor T cells were transduced to express (i) the thrombopoietin receptor (TPOR) or (ii) the GCF receptor with a deletion at aa 715 (GCSFRd715). […] Cell number (FIG. 12, top) or percent transgenic cells (FIG. 12, bottom) were quantified using flow cytometry at 7 days.

Another assay concerns G-CSFR. In words: Enrichment of G-CSFR transgenic T cells upon administration of G-CSF. Conditions: primary human T cells expressing G-CSFR. The class given is cell-based. From the text:
FIG. 7: Strong and specific enrichment of transgenic cells upon administration of G-CSF.
Ectopic expression of a myeloid cytokine receptor (G-CSFR) can be used to modulate CAR-T proliferation, and these T cells could then be inhibited by JAK2 inhibitors (e.g., FDA-approved JAK2 inhibitors such as ruxolitinib and others) (FIG. 6). […] The G-CSF receptor can be further modified to mediate downstream signaling that is normally associated with the T cell activating cytokine IL2 (chimeric G-CSF receptor) (FIG. 8). A pTRPE construct was used for the overexpression of G-CSFR IL2Rβ/IL2RG cytokine receptor (FIG. 9). The HEK IL2 Blue reporter cell line receptor (www.invivogen.com/hek-blue-il2) was used for screening the synthetic cytokine.

Take `CC1=NN(c2ccc(C)c(C)c2)C(=O)/C1=N\Nc1cccc(-c2cccc(C(=O)O)c2)c1O` [EP, eltrombopag, reference compound]: the “TPOR fraction after addition of agonist” value with T cells expressing TPOR is 55.9%.

As for “GCSF (from UniProt P09919 31-204) (ligand)”, the percent transgenic cells by flow cytometry after 7 days in assay [1] was 64.9%.

Turning to TPO: recombinant thrombopoietin, in the assay with T cells expressing TPOR, the “Response of TPOR cells to stimulation (cell number)” value is “responded” and the “TPOR fraction after addition of agonist” value was found to be 82%. In addition, the “Response of negative control cells (NGFR) to stimulation” value in assay [2] was “did not respond”. Besides, the “STAT5 and STAT3 phosphorylation in TPOR expressing T cells” value in the assay on TPOR is “leads to STAT5 and STAT3 phosphorylation”.

In assay [3], “recombinant thrombopoietin (TPO) (from UniProt P40225 22-353) (ligand)” had a percent transgenic cells by flow cytometry after 7 days of 82%.

B1: GCSF: cognate cytokine of the G-CSF receptor, used at 0.1 μg/ml (protein)
chain: TPLGPASSLPQSFLLKCLEQVRKIQGDGAALQEKLCATYKLCHPEELVLLGHSLGIPWAPLSSCPSQALQLAGCLSQLHSGLFLYQGLLQALEGISPELGPTLDTLQLDVADFATTIWQQMEELGMAPALQPTQGAMPAFASAFQRRAGGVLVASHLQSFLEVSYRVLRHLAQP
With B1, the “Response of GCSFRd715 cells to stimulation (cell number)” value in assay [4] was “responded”. The “GCSRFd715 transgenic cell fraction after addition of cytokine” value in assay [4] (enriched from 15.6% without addition) is reported as 64.9%. For the same molecule, in the assay with T cells expressing TPOR, the “Response of TPOR cells to stimulation (cell number)” value was “not”. Further, the “Response of negative control cells (NGFR) to stimulation” value in assay [2] is “did not respond”. Further, the “Enrichment of transgenic cells upon administration of G-CSF” value in the assay on G-CSFR was “Strong enrichment”.
